Changes are numbered by the printed parent chain.
Assays:
[1] = biological target: RM JR4 IgG1 (rhesus macaque mAb, C1C2 Cluster A region) (rhesus macaque (Macaca mulatta)); test: SPR; imaging SPR (IBIS MX96); IgG immobilised on a carboxymethyldextran sensor (CMD200M) by carbodiimide chemistry with a Continuous Flow Microspotter, printed at 300 and 150 nM; soluble receptor as analyte from 20 uM, 1:3 over 8 points; 5 min association and 5 min dissociation; equilibrium KD (Scrubber 2); conditions: both partners purified
[2] = biological target: Rh7B2 IgG1 (rhesusized variant of human 7B2) (rhesus macaque (Macaca mulatta)); test: as above; conditions: both partners purified
[3] = biological target: RhDH677.3 IgG1 (rhesusized variant of human DH677.3) (rhesus macaque (Macaca mulatta)); test: as above; conditions: both partners purified
[4] = biological target: RhDH827 IgG1 (rhesusized variant of human DH827) (rhesus macaque (Macaca mulatta)); test: as above; conditions: both partners purified
[5] = biological target: T1, Env of HIV-1 IMC CH505 on infected CEM.NKR_(CCR5) cells (HIV-1 subtype C CH505 (703010505), strain); test: flow cytometry on cells; conditions: one partner purified
T1 construct: source: HIV-1 IMC-infected CEM.NKR_(CCR5) cells, on the cell surface

[6] = biological target: T2, Env of HIV-1 IMC 1086.C on infected CEM.NKR_(CCR5) cells (HIV-1 subtype C 1086.C, UniProt C6G099, strain); test: flow cytometry on cells; conditions: one partner purified
T2 construct: also called HIV-1 1086; source: HIV-1 IMC-infected CEM.NKR_(CCR5) cells, on the cell surface

[7] = biological target: T3, Env of HIV-1 IMC SF162 on infected CEM.NKR_(CCR5) cells (HIV-1 subtype B SF162, UniProt P19550, strain); test: flow cytometry on cells; conditions: one partner purified
T3 construct: source: HIV-1 IMC-infected CEM.NKR_(CCR5) cells, on the cell surface

[8] = biological target: T4, Env of SHIV SF162.P3 on infected A66 cells (SHIV SF162.P3 Env (stand-in: parental …, UniProt P19550, strain)); test: flow cytometry on cells; conditions: one partner purified
T4 construct: source: SHIV-infected A66 cells, on the cell surface

[9] = biological target: synthetic gp41 peptide (residues 596-606) with C-terminal amidation (HIV-1 subtype B BaL, UniProt Q6TAP7)
[10] = biological target: T5, monomeric full length single chain (FLSC), a covalent dimer of gp120BaL and CD4 (HIV-1 subtype B BaL (gp120); Homo …, UniProt Q6TAP7;P01730); test: SPR; Biacore 3000; IgG immobilized on a protein A chip, antigen flowed over (FLSC 6.25-200 nM; gp41 peptide 6.4-25.6 μM; V2 peptide 12.5-50 μM); 10 mM HEPES pH 7.5, 150 mM NaCl, 0.05% Tween 20, 25 °C; 1:1 Langmuir model; conditions: both partners purified
T5 construct: gp120 of HIV-1 BaL; CD4, domain 1 and 2

Chain of RM JR4 IgG1 (rhesus macaque mAb, C1C2 Cluster A region) (rhesus macaque (Macaca mulatta)) (heavy, as listed by the source, chain 1 of 2): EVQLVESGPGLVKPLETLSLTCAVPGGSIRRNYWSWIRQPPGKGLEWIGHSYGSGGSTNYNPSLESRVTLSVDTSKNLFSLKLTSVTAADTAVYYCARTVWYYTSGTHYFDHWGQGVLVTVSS
Chain of RM JR4 IgG1 (rhesus macaque mAb, C1C2 Cluster A region) (rhesus macaque (Macaca mulatta)) (light, as listed by the source, chain 2 of 2): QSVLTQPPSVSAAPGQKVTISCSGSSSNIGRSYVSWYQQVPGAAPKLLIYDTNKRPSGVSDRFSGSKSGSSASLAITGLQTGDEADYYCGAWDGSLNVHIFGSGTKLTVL

B1: human FcγRIIa (R131) (receptor)
chain: QAAAPPKAVLKLEPPWINVLQEDSVTLTCQGARSPESDSIQWFHNGNLIPTHTQPSYRFKANNNDSGEYTCQTGQTSLSDPVHLTVLSEWLVLQTPHLEFQEGETIMLRCHSWKDKPLVKVTFFQNGKSQKFSRLDPTFSIPQANHSHSGDYHCTGNIGYTLFSSKPVTITVQVPSMGSSSPMG
Q: B1 was tested. Which Kd [1] did it give?
A: The Kd was 2000 nM.

Q: What about the Kd [2] of the same binder?
A: Its Kd is 2900 nM.

Q: What about the Kd [3] of the same binder?
A: The Kd was 4600 nM.

Q: What about the Kd [4] of the same binder?
A: The Kd was 4600 nM.

B2: rhesus macaque FcγRIIIa-1 (I158) (receptor)
chain: EDLPKAVVFLEPQWYRVLEKDSVTLKCQGAYSPEDNSTRWFHNESLISSQTSSYFIAAARVNNSGEYRCQTSLSTLSDPVQLEVHIGWLLLQAPRWVFKEEESIHLRCHSWKNTLLHKVTYLQNGKGRKYFHQNSDFYIPKATLKDSGSYFCRGLIGSKNVSSETVNITITQDLAVSSISSFFPPG
Q: What does the source list for B2?
A: Kd [1]: 1100 nM; Kd [2]: 1000 nM; Kd [3]: 1100 nM; Kd [4]: 1300 nM

B3: rhesus macaque FcγRIIIa-3 (V158) (receptor)
chain: B2 chain with I156V
modifications: N-glycosylated soluble ectodomain; limits from the UniProt extracellular domain. Mature 158 = precursor 176 (offset 18). Only V158 (against I158 in variant 1) is printed; other allelic differences of
Q: B3 was tested. Which Kd [1] did it give?
A: Its Kd is 1600 nM.

Q: And the Kd [2]?
A: Its Kd is 1600 nM.

Q: And the Kd [3]?
A: Its Kd is 1500 nM.

Q: What about the Kd [4] of the same binder?
A: The Kd was 1900 nM.

B4: Rh7B2 IgG1 (antibody, V domains shown)
VH: EVQLVESGGGLVQPGGSLRLSCAASGFTFTEYYMSWVRQAPGKGLEWVSYISKNGEYSYYADSVKGRFTISRDNAKNSLSLQMSSLRAEDTAVYYCTRADGLTYFSELLQYIFDLWGQGVLVTVSS
VL: DIVMTQSPDSLAVSLGERVTINCKSSQTLLYSSNNRHSIAWYQQKPGQAPKLLIYWASMRLSGVPNRFSGSGSGTDFTLTISGLQAEDVAVYYCHQYSSHPPTFGQGTKVEIK
notes: also called rhesusized 7B2
Q: Does B4 bind [5]?
A: Result: binds

Q: Does B4 bind [6]?
A: Result: binds

Q: Does B4 bind [7]?
A: Result: binds

Q: Does B4 bind [8]?
A: Result: binds

B5: DH827 (human IgG1) (antibody, V domains shown)
VH: EVQLVESGGGVVQPGRSLRLSCAASGFTFSNCAMHWVRQAPGKGLEWVAVISYHGSNKYYADYVKGRFTISRDNSKSTVYLQMNSPRAEDTAVYYCAKEGGAPSGWALDYWGQGTLVTVSS
VL: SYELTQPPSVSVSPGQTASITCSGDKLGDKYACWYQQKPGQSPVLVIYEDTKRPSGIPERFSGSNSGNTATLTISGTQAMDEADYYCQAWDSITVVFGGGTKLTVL
notes: also called human DH827
Q: What does the source list for B5?
A: binding result [5]: binds; binding result [6]: binds; binding result [7]: binds

B6: RhDH827 IgG1 (antibody, V domains shown)
VH: EVQLVESGGGLVQPGGSLRLSCAASGFTFSNCAMHWVRQAPGKGLEWVAVISYHGSNKYYADYVKGRFTISRDNSKNMLYLQMNNLKLEDTAVYYCAREGGAPSGWALDYWGQGVLVTVSS
VL: SYELTQSPSVSVSPGQPASITCSGDKLGDKYACWYQQKPGQVPVLVIYEDTKRPSGIPERFSGSNSGNTATLTISGVEAGDEADYYCQAWDSITHVVFGGGTRLTVL
notes: also called rhesusized DH827
Q: Which results are given for B6?
A: binding result [5]: binds; binding result [6]: binds; binding result [7]: binds; binding result [8]: binds

B7: 7B2 (antibody, V domains shown)
VH: QVQLVQSGGGVFKPGGSLRLSCEASGFTFTEYYMTWVRQAPGKGLEWLAYISKNGEYSKYSPSSNGRFTISRDNAKNSVFLQLDRLSADDTAVYYCARADGLTYFSELLQYIFDLWGQGARVTVSS
VL: ETTLTQSPDSLAVSPGERATIHCKSSQTLLYSSNNRHSIAWYQQRPGQPPKLLLYWASMRLSGVPDRFSGSGSGTDFTLTINNLQAEDVAIYYCHQYSSHPPTFGHGTRVELR
Q: Does B7 bind [9]?
A: Result: binds

B8: RhDH677.3 IgG1 (antibody, V domains shown)
VH: QVQLVQSGAEVKKPGASVKLSCKASGYTFTSYDINWVRQAPGQGLEWMGWMNPKTGNTGYAQKFQGRVTMTRDTSTSTAYMELSSLRSEDTAVYYCATYRIIAAVGYRYFQYWGQGALVTVSS
VL: AIQMTQSPSSLSASVGDKVTITCRASQGFGNYLAWYQQKPGKVPKLLIYAATTLQSEVPSRFSGSGSGTDFTLTISSLQPEDVATYYCQKYNSAPFTFGQGTRLEIK
notes: also called rhesusized DH677.3
Q: Which results are given for B8?
A: fold change of KD against human DH677.3 [10]: ~8 fold; binding result [5]: binds; binding result [7]: binds; binding result [8]: binds

From PMC8770954 (Frontiers in Immunology, 2021)
